Residue numbers refer to the chain shown, from its start. Names and notes keep the numbering of the source. Values belong to the binder of their own block, whether it stands above or below them.
Target: FLAG-CtBP1 (full-length CtBP1 in pFLAG-CMV-2), expressed in 293 HEK cells (UniProt Q13363 1-440)
Experiment: co-immunoprecipitation from transfected 293 HEK cells
Protocol: 293 HEK cells (8×10⁵) were plated in 6-well plates and transfected with 10 μl Lipofectamine 2000 (Invitrogen Life Technologies) and 1 μg of DNA. Cells were harvested one day after transfection. THP-1 cells (4×10⁶) were brought to a final volume of 0.8 ml and electroporated with 20 μg of DNA in total. Electroporation took place in a 0.2-cm cuvette (Bio-Rad) at 300 V and 960 μF. Day 6 immature human Mo-DCs were transduced with Ad5fib35hDC-SCRIPT-green fluorescence protein (GFP) at a multiplicity of infection of 1000 as described previously (Crucell, Leiden, the Netherlands) (Havenga, M J E et al. (2002) J. Virol. 76, 4612-4620.).
Whole cell lysates were prepared in 1% SDS standard lysis buffer. Equal amounts of protein were separated by SDS-PAGE electrophoresis and proteins were transferred to Protran Nitrocellulose Transfer Membrane (Schleicher and Schuell BioScience). The following primary antibodies were used; Mouse anti-GFP (0.04 μg/ml; Roche), mouse anti-myc (0.2 μg/ml; Invitrogen Life Technologies), M2 mouse anti-FLAG 1 μg/ml (Sigma-Aldrich), mouse anti-Epstein-Barr Virus (anti-EBV) mAb, BZLF1 Protein, ZEBRA, clone BZ.1 (DakoCytomation) in combination with a second HRP conjugated Goat anti-Mouse IgG (H+L) antibody (0.4 μg/ml; Pierce). Inmmunoprecipitation was performed in a standard RIPA/1% Triton X-100 buffer for 3 h at 4° C., using protein G beads. […]

binding result: no binding
B1: YFP fusion of the acidic region of DC-SCRIPT with both motifs mutated (L593A and L648A) (pEYFP-C1), expressed in 293 HEK cells (other)
chain: EQEEPFDASQKRRAKVPVFQSDGESAQGSHCHEEEEEDNCYEVEPYSPGLAPQSQQLCTPEDASTKSEHAPEVLEEACKEEKEDASKGEWEKRSKGDLGAEGGQE
notes: also called Ac/double mut; not shown: yellow fluorescence protein (YFP) encoded by pEYFP-C1

binding result: no binding
B2: YFP fusion of the acidic region of DC-SCRIPT with the first motif mutated (L593A) (pEYFP-C1), expressed in 293 HEK cells (other)
chain: B1 chain with A63L
notes: also called Ac/mut1; not shown: yellow fluorescence protein (YFP) encoded by pEYFP-C1
